This note sets out measurements from the Immune Epitope Database (IEDB).

Some targets named below: HLA-A*68:01; HLA-A*33:01; HLA-A*31:01; HLA-A*11:01; HLA-A*03:01.
Common to all, as to test: IEDB peptide-MHC binding, purified MHC/competitive/radioactivity; filed as Kd, often an IC50 or EC50 that approximates it; ≥ and ≤ were set here for values at or beyond the usual limits of such assays
The mark [1] stands for this setting: source organism: SARS coronavirus Tor2.
Where [2] appears, read: source organism: Vaccinia virus WR.
[3] abbreviates: source organism: Mammarenavirus whitewaterense.
Where [4] appears, read: source organism: Mammarenavirus machupoense.
Setting [5] is: source organism: Triticum aestivum.
The mark [6] stands for this setting: source organism: Vaccinia virus Copenhagen.

Broadly, the Kd is a measure of binding affinity in units of concentration. On to SLLRSTSQK, for which the Kd worked out at 3040 nM in the assay with HLA-A*68:01 (setting [1]); 14700 nM with HLA-A*33:01 (setting [1]); 802 nM with HLA-A*31:01 (setting [1]); 12.8 nM with HLA-A*11:01 (setting [1]); 2.56 nM in the assay with HLA-A*03:01 (setting [1]).
Consider QMREIITGNK, for which the Kd with HLA-A*68:01 (setting [2]) was 12400 nM; with HLA-A*33:01 (setting [2]), no less than 47500 nM; with HLA-A*31:01 (setting [2]) it was 1950 nM; in the assay with HLA-A*11:01 (setting [2]), 1710 nM; with HLA-A*03:01 (setting [2]) it was 15.8 nM.
For RSDGYFLKIK the same measures were no less than 70200 nM, no less than 70000 nM, 5500 nM, 1560 nM and 10400 nM.
With FSGKEPISDY, the Kd with HLA-A*68:01 (setting [2]) was no less than 67000 nM; with HLA-A*33:01 (setting [2]), no less than 70000 nM; with HLA-A*31:01 (setting [2]), no less than 70000 nM; with HLA-A*11:01 (setting [2]) it was no less than 52400 nM; with HLA-A*03:01 (setting [2]), no less than 70100 nM.
As for RSCSYKIGHH, the Kd with HLA-A*68:01 (setting [3]) is no less than 50900 nM; in the assay with HLA-A*33:01 (setting [3]) it was no less than 70000 nM; with HLA-A*31:01 (setting [3]), 294 nM; with HLA-A*11:01 (setting [3]), 17200 nM; in the assay with HLA-A*03:01 (setting [3]) it was 3900 nM.
For the sequence LAELLEMKY, the Kd in the assay with HLA-A*68:01 (setting [2]) was no less than 77700 nM; with HLA-A*33:01 (setting [2]) it was no less than 77700 nM; in the assay with HLA-A*31:01 (setting [2]) it was no less than 77900 nM; in the assay with HLA-A*11:01 (setting [2]) it was no less than 77900 nM; in the assay with HLA-A*03:01 (setting [2]), 14400 nM.
As for FLELKRGIYK, the Kd was 89.1 nM with HLA-A*68:01 (setting [2]); 945 nM in the assay with HLA-A*33:01 (setting [2]); 120 nM with HLA-A*31:01 (setting [2]); 1.19 nM with HLA-A*11:01 (setting [2]); 4.84 nM with HLA-A*03:01 (setting [2]).
For the sequence YVNHTLTGQH, the Kd in the assay with HLA-A*68:01 (setting [4]) was no less than 70100 nM; in the assay with HLA-A*33:01 (setting [4]), 29.5 nM; with HLA-A*31:01 (setting [4]), no less than 70000 nM; in the assay with HLA-A*11:01 (setting [4]), no less than 69700 nM; in the assay with HLA-A*03:01 (setting [4]), no less than 70000 nM.
With LLNKEMYLK, the Kd is 1100 nM with HLA-A*68:01 (setting [1]); 6500 nM with HLA-A*33:01 (setting [1]); 155 nM in the assay with HLA-A*31:01 (setting [1]); 16.9 nM in the assay with HLA-A*11:01 (setting [1]); 10.7 nM with HLA-A*03:01 (setting [1]).
Take QKCGELLEFH: the dissociation constant Kd in the assay with HLA-A*68:01 (setting [3]) is no less than 70100 nM; with HLA-A*33:01 (setting [3]), no less than 70000 nM; with HLA-A*31:01 (setting [3]), 11300 nM; with HLA-A*11:01 (setting [3]), no less than 69700 nM; in the assay with HLA-A*03:01 (setting [3]) it was no less than 70000 nM.
On to KINSVKYYGR, for which the Kd in the assay with HLA-A*68:01 (setting [2]) amounted to 5340 nM; with HLA-A*33:01 (setting [2]), 2420 nM; in the assay with HLA-A*31:01 (setting [2]), 30.2 nM; with HLA-A*11:01 (setting [2]) it was 135 nM; in the assay with HLA-A*03:01 (setting [2]), 1870 nM.
Take GFDAWFSQR: the dissociation constant (Kd) with HLA-A*68:01 (setting [1]) is 4270 nM; with HLA-A*33:01 (setting [1]), 654 nM; with HLA-A*31:01 (setting [1]), 131 nM; with HLA-A*11:01 (setting [1]) it was no less than 29900 nM; in the assay with HLA-A*03:01 (setting [1]), 17800 nM.
In the case of AIILHQQQK, the Kd with HLA-A*68:01 (setting [5]) was 941 nM; in the assay with HLA-A*33:01 (setting [5]), no less than 77700 nM; in the assay with HLA-A*31:01 (setting [5]) it was no less than 20600 nM; with HLA-A*11:01 (setting [5]), 38.2 nM; with HLA-A*03:01 (setting [5]) it was 104 nM.
As for KFNDYRKQMY, the Kd with HLA-A*68:01 (setting [2]) is no less than 32400 nM; with HLA-A*33:01 (setting [2]) it was no less than 59300 nM; with HLA-A*31:01 (setting [2]), 196 nM; in the assay with HLA-A*11:01 (setting [2]), no less than 22400 nM; in the assay with HLA-A*03:01 (setting [2]), 4820 nM.
For SFSNTIQSYK, the Kd with HLA-A*68:01 (setting [2]) turned out to be 177 nM; in the assay with HLA-A*33:01 (setting [2]) it was 12200 nM; in the assay with HLA-A*31:01 (setting [2]), 220 nM; in the assay with HLA-A*11:01 (setting [2]), 130 nM; with HLA-A*03:01 (setting [2]), 117 nM.
Consider KSTQSVLCVK, for which the Kd with HLA-A*68:01 (setting [2]) is 26.5 nM; in the assay with HLA-A*33:01 (setting [2]) it was 11400 nM; with HLA-A*31:01 (setting [2]), 90 nM; with HLA-A*11:01 (setting [2]) it was 0.497 nM; in the assay with HLA-A*03:01 (setting [2]) it was 60.7 nM.
Turning to VSMMSMYGK, the Kd in the assay with HLA-A*68:01 (setting [2]) was 5 nM; with HLA-A*33:01 (setting [2]) it was no less than 23500 nM; with HLA-A*31:01 (setting [2]), 113 nM; in the assay with HLA-A*11:01 (setting [2]), 1.18 nM; with HLA-A*03:01 (setting [2]), 15.2 nM.
For CAAYYFMKFR, the Kd came out at 70.5 nM with HLA-A*68:01 (setting [1]); 141 nM with HLA-A*33:01 (setting [1]); 10.9 nM with HLA-A*31:01 (setting [1]); 65 nM with HLA-A*11:01 (setting [1]); 209 nM with HLA-A*03:01 (setting [1]).
As for TTIKPVSYK, the Kd with HLA-A*68:01 (setting [1]) turned out to be 1.5 nM; with HLA-A*33:01 (setting [1]) it was 144 nM; in the assay with HLA-A*31:01 (setting [1]) it was 103 nM; with HLA-A*11:01 (setting [1]), 0.759 nM; in the assay with HLA-A*03:01 (setting [1]), 2.04 nM.
With RVMANNVKK, the dissociation constant (Kd) was 104 nM with HLA-A*68:01 (setting [2]); no less than 77700 nM with HLA-A*33:01 (setting [2]); 139 nM with HLA-A*31:01 (setting [2]); 16.7 nM with HLA-A*11:01 (setting [2]); 17.2 nM in the assay with HLA-A*03:01 (setting [2]).
YVMNIERQDY: the Kd is 189 nM with HLA-A*68:01 (setting [2]); no less than 23300 nM with HLA-A*33:01 (setting [2]); 10200 nM with HLA-A*31:01 (setting [2]); 19000 nM with HLA-A*11:01 (setting [2]); no less than 70100 nM in the assay with HLA-A*03:01 (setting [2]).
As for FADNDRQDIY, the dissociation constant (Kd) in the assay with HLA-A*68:01 (setting [2]) is 1250 nM; with HLA-A*33:01 (setting [2]) it was no less than 70000 nM; in the assay with HLA-A*31:01 (setting [2]), no less than 70000 nM; with HLA-A*11:01 (setting [2]) it was no less than 46000 nM; with HLA-A*03:01 (setting [2]), no less than 70100 nM.
Take NTFPNITLK: the Kd in the assay with HLA-A*68:01 (setting [6]) was 0.779 nM; in the assay with HLA-A*33:01 (setting [6]) it was 164 nM; in the assay with HLA-A*31:01 (setting [6]), 595 nM; in the assay with HLA-A*11:01 (setting [6]) it was 9.39 nM; with HLA-A*03:01 (setting [6]) it was 53.1 nM.
